Reference: US20240010684A1 (Bayer, published 2024)
*1 amine or outer side, *2 acyl side, *3 side chain or, on linkers, in order; H or OH if unused. Bridges are numbered along the chain shown (N, C = ends). Where no end group is shown, it is not given here. [ ]: non-standard residue; d: D form. TTDS = 1,13-diamino-4,7,10-trioxatridecan-succinamic acid, O=C(CCC(=O)[*:2])NCCCOCCOCCOCCCN[*:1]; Oic = O=C(O)[C@@H]1C[C@@H]2CCCC[C@@H]2N1; Trx = NC[C@H]1CC[C@H](C(=O)O)CC1; tBuAla = CC(C)(C)C[C@H](N)C(=O)O; PEG4 = NCCOCCOCCOCCOCCC(=O)O; Pen = CC(C)(S)[C@H](N)C(=O)O; Orn = NCCC[C@H](N)C(=O)O; Dab = NCC[C@H](N)C(=O)O; Dap = NC[C@H](N)C(=O)O; Ahx = NCCCCCC(=O)O; Sar = CNCC(=O)O

T1: recombinant human MASP1 (amino acids 297-699, C-terminal His Tag) (human, UniProt P48740 297-699)
T1 sequence: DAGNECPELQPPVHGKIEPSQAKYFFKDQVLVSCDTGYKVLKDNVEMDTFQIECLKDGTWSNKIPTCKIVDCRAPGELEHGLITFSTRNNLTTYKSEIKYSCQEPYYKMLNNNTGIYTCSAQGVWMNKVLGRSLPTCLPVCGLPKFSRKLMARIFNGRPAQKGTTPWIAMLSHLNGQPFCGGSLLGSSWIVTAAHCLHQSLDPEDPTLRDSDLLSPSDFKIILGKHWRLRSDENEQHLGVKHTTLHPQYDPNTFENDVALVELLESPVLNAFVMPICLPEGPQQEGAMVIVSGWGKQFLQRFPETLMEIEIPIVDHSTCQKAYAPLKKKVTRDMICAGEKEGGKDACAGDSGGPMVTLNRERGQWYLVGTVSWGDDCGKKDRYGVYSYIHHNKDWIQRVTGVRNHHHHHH

B1: Example 14: (PEG3(16 atoms))**-GIC+SRSLPPIC+IPD** (peptide)
peptide: cyclo([PEG4]GICSRSLPPICIPD)
modifications: disulfide 4-12; also: TFA salt
B2: Example 61: (Orn)++-AIC+SRS-((tBu)A)-PPI-(Pen)+-IPD++-NH2 (peptide)
peptide: [Orn]AICSRS[tBuAla]PPI[Pen]IPD-NH2
modifications: lactam 1-15; disulfide 4-12; also: TFA salt
B3: Example 62: G**-(TXA)-GIC+SRS-((tBu)A)-PPI-(Pen)+-IPD++-NH2 (peptide)
peptide: G[Trx]GICSRS[tBuAla]PPI[Pen]IPD-NH2
modifications: disulfide 5-13; lactam N-16; also: TFA salt
B4: Example 63: (TTDS)**-AIC+SRS-((tBu)A)-PPI-(Pen)+-IPD** (peptide)
peptide: cyclo([TTDS]AICSRS[tBuAla]PPI[Pen]IPD)
modifications: disulfide 4-12; also: TFA salt
B5: Example 65: (Orn)**-GIC+SRS-((tBu)A)-PPI-(Pen)+-I** (peptide)
peptide: cyclo([Orn]GICSRS[tBuAla]PPI[Pen]I)
modifications: disulfide 4-12; also: TFA salt
B6: Example 66: (Orn)++-IC+SRS-((tBu)A)-PPI-(Pen)+-I** (peptide)
peptide: [Orn]ICSRS[tBuAla]PPI[Pen]I
modifications: lactam 1-C; disulfide 3-11; also: TFA salt
B7: Example 67: K++-IC+SRS-((tBu)A)-PPI-(Pen)+-I** (peptide)
peptide: KICSRS[tBuAla]PPI[Pen]I
modifications: lactam 1-C; disulfide 3-11; also: TFA salt
B8: Example 15: G**GIC+SRSLPPIC+IPD** (peptide)
peptide: cyclo(GGICSRSLPPICIPD)
modifications: disulfide 4-12; also: TFA salt
B9: Example 71: (Orn)++-IC+SRS-((tBu)A)-PPI-(Pen)+-IP** (peptide)
peptide: [Orn]ICSRS[tBuAla]PPI[Pen]IP
modifications: lactam 1-C; disulfide 3-11; also: TFA salt
B10: Example 73: (Dap)**-(Dab)-IC+SRS-((tBu)A)-PPI-(Pen)+-I** (peptide)
peptide: cyclo([Dap][Dab]ICSRS[tBuAla]PPI[Pen]I)
modifications: disulfide 4-12; also: TFA salt
B11: Example 74: (Ahx)**-AIC+SRSLP-(Oic)-I-(Pen)+-IPE++-NH2 (peptide)
peptide: [Ahx]AICSRSLP[Oic]I[Pen]IPE-NH2
modifications: disulfide 4-12; lactam N-15; also: TFA salt
B12: Example 77: (Ahx)**-((N-Me)G)-AIC+SRSLP-(Oic)-I-(Pen)+-IPE++-NH2 (peptide)
peptide: [Ahx][Sar]AICSRSLP[Oic]I[Pen]IPE-NH2
modifications: disulfide 5-13; lactam N-16; also: TFA salt
B13: Example 78: k++-IC+SRS-((tBu)A)-PPI-(Pen)+-I** (HCl Salt) (peptide)
peptide: [dK]ICSRS[tBuAla]PPI[Pen]I
modifications: lactam 1-C; disulfide 3-11; also: HCl salt
B14: Example 79: (Ahx)**-aIC+SRSLP-(Oic)-I-(Pen)+-IPE++-NH2 (HCl Salt) (peptide)
peptide: [Ahx][dA]ICSRSLP[Oic]I[Pen]IPE-NH2
modifications: disulfide 4-12; lactam N-15; also: HCl salt
B15: Example 16: (Ahx)**-GIC+SRSLPPIC+IPd** (peptide)
peptide: cyclo([Ahx]GICSRSLPPICIP[dD])
modifications: disulfide 4-12; also: TFA salt
B16: Example 80: k++-IC+SRS-((tBu)A)-PPI-(Pen)+-I** (peptide)
peptide: [dK]ICSRS[tBuAla]PPI[Pen]I
modifications: lactam 1-C; disulfide 3-11; also: TFA salt

The binders below were run against recombinant human MASP2 (amino acids 297-686, C-terminal His Tag) (human, UniProt O00187 297-686) (assay: cell-based or functional assay).
Chain of recombinant human MASP2 (amino acids 297-686, C-terminal His Tag) (O00187 other isoform, or with tags, fused parts or gaps limits assumed): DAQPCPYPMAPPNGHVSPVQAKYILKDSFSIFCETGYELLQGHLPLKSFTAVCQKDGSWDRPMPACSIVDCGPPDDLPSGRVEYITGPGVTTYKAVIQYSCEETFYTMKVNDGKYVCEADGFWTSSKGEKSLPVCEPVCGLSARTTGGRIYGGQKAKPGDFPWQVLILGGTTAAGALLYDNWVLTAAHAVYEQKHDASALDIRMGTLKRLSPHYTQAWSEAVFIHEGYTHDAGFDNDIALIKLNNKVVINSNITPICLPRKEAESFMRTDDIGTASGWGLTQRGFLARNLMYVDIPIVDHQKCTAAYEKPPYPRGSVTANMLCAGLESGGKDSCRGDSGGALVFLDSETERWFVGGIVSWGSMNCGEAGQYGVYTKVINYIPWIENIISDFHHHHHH

Binder | human MASP2 IC50 [nM]
B1 | 240
B2 | 310
B3 | 540
B4 | 170
B5 | 540
B6 | 22
B7 | 150
B8 | 300
B9 | 24
B10 | 430
B11 | 160
B12 | 210
B13 | 7
B14 | 45
B15 | 370
B16 | 6.8

These binders were tested against T1, recombinant human MASP1 (amino acids …) (assay: cell-based or functional assay).

Binder | human MASP1 IC50 [nM]
B1 | 170
B2 | 3.1
B3 | 22
B4 | 28
B5 | 49
B6 | 8.1
B7 | 3.25
B8 | 120
B9 | 21
B10 | 42
B11 | 14
B12 | 11
B13 | 10
B14 | 22
B15 | 150
B16 | 11
